Source: patent publication US5985836A, “Alpha-1 proteinase inhibitor binding peptides” (Bayer Corporation, priority 1998, dated 1999)
Blank lines part the entries; values can stand above or below the substance they belong to. Ends that are not written are not given here.

Assays:
[1] = molecular target: T1, A1PI (Homo sapiens, UniProt P01009); test: A1PI binding on peptide-resin column, injection of 1 mg A1PI in equilibration buffer; settings: 1 mg A1PI in equilibration buffer; for Percent A1PI Eluted by Fraction Based on Absorbance at 280 nm, 1M NaCl / Percent A1PI Eluted by Fraction Based on Absorbance at 280 nm, 2% Acetic Acid / Percent A1PI Eluted by Fraction Based on Absorbance at 280 nm, Flowthrough: 4° C.; for Percent A1PI Eluted by Fraction, 1M NaCl / Percent A1PI Eluted by Fraction, 2% Acetic Acid / Percent A1PI Eluted by Fraction, Flowthrough: 20° C.
T1 construct: Human plasma is currently the only approved source of therapeutic AlPI
T1 sequence (P01009 25-418): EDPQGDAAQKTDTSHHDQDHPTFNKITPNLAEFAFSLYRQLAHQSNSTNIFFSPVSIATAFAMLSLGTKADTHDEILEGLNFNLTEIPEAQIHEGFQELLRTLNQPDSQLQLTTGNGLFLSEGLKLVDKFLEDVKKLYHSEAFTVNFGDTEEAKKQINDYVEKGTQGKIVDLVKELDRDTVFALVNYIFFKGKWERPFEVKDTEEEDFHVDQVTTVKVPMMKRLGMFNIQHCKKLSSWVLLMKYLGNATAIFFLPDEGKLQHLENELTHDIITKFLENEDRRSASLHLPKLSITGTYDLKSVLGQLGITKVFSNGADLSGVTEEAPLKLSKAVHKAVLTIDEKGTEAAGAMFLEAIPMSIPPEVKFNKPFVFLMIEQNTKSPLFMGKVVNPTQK
Outline: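 Percent of total eluted A1PI per fraction (flowthrough, NaCl steps, 2% acetic acid) determined by A280 integration or immunonephelometry. Columns of peptide-derivatized A-Totda-Toyopearl resin (0.1 mmole/g) received 1 mg A1PI at 4 °C or 20 °C, flow 865 or 523 μl/min.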

[2] = molecular target: T1, A1PI; test: A1PI purification from 5 mg hSA + 1 mg A1PI on peptide column, A1PI mass balance; format: binding; settings: for Mass AlPI Eluted in Acid Eluate: nephelometry; for Mass Protein per Eluate Fraction, 1M NaCl / Mass Protein per Eluate Fraction, 2% Ac. Acid / Mass Protein per Eluate Fraction, 3M NaCl / Mass Protein per Eluate Fraction, Flow / Percent Eluted by Fraction, 1M NaCl / Percent Eluted by Fraction, 2% Ac. Acid / Percent Eluted by Fraction, 3M NaCl / Percent Eluted by Fraction, Flow: A1PI, 5 mg hSA + 1 mg A1PI; for Mass Protein per Eluate Fraction, 1M NaCl / Mass Protein per Eluate Fraction, 2% Ac. Acid / Mass Protein per Eluate Fraction, 3M NaCl / Mass Protein per Eluate Fraction, Flow: * Below detection limit; for Percent Eluted by Fraction, 1M NaCl / Percent Eluted by Fraction, 2% Ac. Acid / Percent Eluted by Fraction, 3M NaCl / Percent Eluted by Fraction, Flow: relative to total eluted
Outline: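 Mass balance by immunonephelometry of fractions from step elutions (1M NaCl, 3M NaCl, 2% acetic acid, neutralised with Tris) at 865 μl/min. Sample was a mixture of 1 mg A1PI and 5 mg hSA held 10 min on peptide-derivatised Toyopearl columns (0.1 mmole/g) at 4 °C or 20 °C.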

[3] = molecular target: T1, A1PI; test: Purification of A1PI from Effluent II+III on peptide column, A1PI mass balance; format: binding; settings: A1PI, 1 ml Eff. II+III, 4° C.; for Mass Protein per Eluate Fraction, 1M NaCl / Mass Protein per Eluate Fraction, 2% Acetic Acid / Mass Protein per Eluate Fraction, Flow: * as in Tables 4, 5 (below detection limit)
Outline: (§1)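 Run at 4° C: Effluent II+III (1 ml, 20% ethanol) loaded with a 10 min residence. Elution at 865 μl/min, in sequence 1M NaCl, 3M NaCl, 2% acetic acid; A1PI, IgA, IgG and haptoglobin accounted for in each fraction.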

[4] = molecular target: T2, apolipoprotein alpha-1 (Apo A-1) (Homo sapiens, UniProt P02647); test: Purification from Effluent II+III, Apo A-1 mass balance; format: binding; settings: 1 ml Eff. II+III, 4° C.
T2 construct: Eff; II+III is a process intermediate in the Cohn plasma fractionation process; tissue Bayer Corporation (Clayton, N.C.); host or cells: plasma fraction: Cohn Effluent II+III
T2 sequence (P02647 19-267): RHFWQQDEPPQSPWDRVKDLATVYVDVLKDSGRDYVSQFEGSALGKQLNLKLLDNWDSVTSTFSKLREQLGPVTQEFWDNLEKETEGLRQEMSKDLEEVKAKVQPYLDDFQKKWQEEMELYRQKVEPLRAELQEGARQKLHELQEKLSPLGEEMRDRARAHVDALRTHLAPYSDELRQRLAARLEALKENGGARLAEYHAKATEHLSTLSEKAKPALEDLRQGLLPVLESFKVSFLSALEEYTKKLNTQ
Outline: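 First, 1 ml of the ethanolic Cohn intermediate (20% ethanol, ~1 mg/ml A1PI) is injected and held for a 10 min residence time. Columns are then eluted stepwise at a constant 865 μl/min with 1M NaCl, 3M NaCl and finally 2% acetic acid, all at 4° C.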

[5] = tested on: Immunoglobulin A (IgA); test: Purification from Effluent II+III, IgA mass balance; format: binding, human; settings: 1 ml Eff. II+III, 4° C.; for Mass Protein per Eluate Fraction, 1M NaCl / Mass Protein per Eluate Fraction, 2% Acetic Acid / Mass Protein per Eluate Fraction, Flow: * as in Tables 4, 5 (below detection limit)
Outline: as §1

[6] = tested on: Immunoglobulin G (IgG); test: Purification from Effluent II+III, IgG mass balance; format: binding, human; settings: 1 ml Eff. II+III, 4° C.; for Mass Protein per Eluate Fraction, 1M NaCl / Mass Protein per Eluate Fraction, Flow: * as in Tables 4, 5 (below detection limit)
Outline: as §1

[7] = molecular target: T1, A1PI; test: Capture and elution of active A1PI with 2M urea buffer (elastase inhibition activity assay and immunonephelometry); format: binding; settings: 4° C.; for Mass A1PI in Urea Eluate (mg), Activity / Mass A1PI in Urea Eluate (mg), Nephelometry: 1 mg A1PI, eluted with 2M urea, pH 6; for Mass A1PI in Urea Eluate (mg), Activity: elastase inhibition activity assay; for Mass A1PI in Urea Eluate (mg), Nephelometry: immunonephelometry; for Specific Activity: mass of A1PI by activity assay relative to immunonephelometry, urea eluate
[8] = * as in Tables 4, 5 (below detection limit)

Percent A1PI Eluted by Fraction Based on Absorbance at 280 nm, 1M NaCl [1]: 74%
Percent A1PI Eluted by Fraction Based on Absorbance at 280 nm, 2% Acetic Acid [1]: 26%
Percent A1PI Eluted by Fraction Based on Absorbance at 280 nm, Flowthrough [1]: 0%
Percent A1PI Eluted by Fraction, 1M NaCl [1]: 55%
Percent A1PI Eluted by Fraction, 2% Acetic Acid [1]: 45%
Percent A1PI Eluted by Fraction, Flowthrough [1]: 0%
Mass AlPI Eluted in Acid Eluate ([2]; 250 μg AlPI injected with 5 mg hSA, 20° C.): 0.09 mg
Mass AlPI Eluted in Acid Eluate ([2]; 500 μg AlPI injected with 5 mg hSA, 20° C.): 0.21 mg
Mass AlPI Eluted in Acid Eluate ([2]; 1000 μg AlPI injected with 5 mg hSA, 20° C.): 0.30 mg
Mass Protein per Eluate Fraction, 1M NaCl ([2]; 4° C.): 0.31 mg
Mass Protein per Eluate Fraction, 2% Ac. Acid ([2]; 4° C.): 0.19 mg
Mass Protein per Eluate Fraction, 3M NaCl ([2]; 4° C.): 0.02 mg
Mass Protein per Eluate Fraction, Flow ([2]; 4° C.): 0.19 mg
Percent Eluted by Fraction, 1M NaCl ([2]; 4° C.): 44%
Percent Eluted by Fraction, 2% Ac. Acid ([2]; 4° C.): 27%
Percent Eluted by Fraction, 3M NaCl ([2]; 4° C.): 3%
Percent Eluted by Fraction, Flow ([2]; 4° C.): 27%
Mass Protein per Eluate Fraction, 1M NaCl ([2]; 20° C.): 0.32 mg
Mass Protein per Eluate Fraction, 2% Ac. Acid ([2]; 20° C.): 0.38 mg
Mass Protein per Eluate Fraction, 3M NaCl ([2]; 20° C.): 0.02 mg
Mass Protein per Eluate Fraction, Flow ([2]; 20° C.): 0.07 mg
Percent Eluted by Fraction, 1M NaCl ([2]; 20° C.): 41%
Percent Eluted by Fraction, 2% Ac. Acid ([2]; 20° C.): 48%
Percent Eluted by Fraction, 3M NaCl ([2]; 20° C.): 2%
Percent Eluted by Fraction, Flow ([2]; 20° C.): 9%
Percent Eluted by Fraction, 1M NaCl [3]: 16%
Percent Eluted by Fraction, 2% Acetic Acid [3]: 29%
Percent Eluted by Fraction, 3M NaCl [3]: 0%
Percent Eluted by Fraction, Flow [3]: 56%
Mass Protein per Eluate Fraction, 1M NaCl [3]: 0.15 mg
Mass Protein per Eluate Fraction, 2% Acetic Acid [3]: 0.28 mg
Mass Protein per Eluate Fraction, Flow [3]: 0.55 mg
Percent Eluted by Fraction, 1M NaCl [4]: 60%
Percent Eluted by Fraction, 2% Acetic Acid [4]: 0%
Percent Eluted by Fraction, 3M NaCl [4]: 0%
Percent Eluted by Fraction, Flow [4]: 40%
Mass Protein per Eluate Fraction, 1M NaCl [4, 8]: 0.34 mg
Mass Protein per Eluate Fraction, Flow [4, 8]: 0.22 mg
Mass A1PI in Urea Eluate (mg), Activity [7]: 0.37 mg
Mass A1PI in Urea Eluate (mg), Nephelometry [7]: 0.49 mg
Specific Activity [7]: 0.75 mg/mg
Substance: PYWIVR
Percent Eluted by Fraction, 1M NaCl [5]: 57%
Percent Eluted by Fraction, 2% Acetic Acid [5]: 22%
Percent Eluted by Fraction, 3M NaCl [5]: 0%
Percent Eluted by Fraction, Flow [5]: 21%
Mass Protein per Eluate Fraction, 1M NaCl [5]: 0.22 mg
Mass Protein per Eluate Fraction, 2% Acetic Acid [5]: 0.08 mg
Mass Protein per Eluate Fraction, Flow [5]: 0.08 mg
Percent Eluted by Fraction, 1M NaCl [6]: 10%
Percent Eluted by Fraction, 2% Acetic Acid [6]: 0%
Percent Eluted by Fraction, 3M NaCl [6]: 0%
Percent Eluted by Fraction, Flow [6]: 90%
Mass Protein per Eluate Fraction, 1M NaCl [6]: 0.03 mg
Mass Protein per Eluate Fraction, Flow [6]: 0.30 mg

Percent A1PI Eluted by Fraction Based on Absorbance at 280 nm, 1M NaCl [1]: 55%
Percent A1PI Eluted by Fraction Based on Absorbance at 280 nm, 2% Acetic Acid [1]: 45%
Percent A1PI Eluted by Fraction Based on Absorbance at 280 nm, Flowthrough [1]: 0%
Percent A1PI Eluted by Fraction, 1M NaCl [1]: 72%
Percent A1PI Eluted by Fraction, 2% Acetic Acid [1]: 28%
Percent A1PI Eluted by Fraction, Flowthrough [1]: 0%
Mass Protein per Eluate Fraction, 1M NaCl ([2]; 4° C.): 0.19 mg
Mass Protein per Eluate Fraction, 2% Ac. Acid ([2]; 4° C.): 0.45 mg
Mass Protein per Eluate Fraction, Flow ([2]; 4° C.): 0.26 mg
Percent Eluted by Fraction, 1M NaCl ([2]; 4° C.): 21%
Percent Eluted by Fraction, 2% Ac. Acid ([2]; 4° C.): 50%
Percent Eluted by Fraction, 3M NaCl ([2]; 4° C.): 0%
Percent Eluted by Fraction, Flow ([2]; 4° C.): 29%
Mass Protein per Eluate Fraction, 1M NaCl ([2]; 20° C.): 0.14 mg
Mass Protein per Eluate Fraction, 2% Ac. Acid ([2]; 20° C.): 0.54 mg
Mass Protein per Eluate Fraction, Flow ([2]; 20° C.): 0.09 mg
Percent Eluted by Fraction, 1M NaCl ([2]; 20° C.): 19%
Percent Eluted by Fraction, 2% Ac. Acid ([2]; 20° C.): 70%
Percent Eluted by Fraction, 3M NaCl ([2]; 20° C.): 0%
Percent Eluted by Fraction, Flow ([2]; 20° C.): 11%
Percent Eluted by Fraction, 1M NaCl [3]: 4%
Percent Eluted by Fraction, 2% Acetic Acid [3]: 80%
Percent Eluted by Fraction, 3M NaCl [3]: 0%
Percent Eluted by Fraction, Flow [3]: 17%
Mass Protein per Eluate Fraction, 1M NaCl [3]: 0.04 mg
Mass Protein per Eluate Fraction, 2% Acetic Acid [3]: 0.87 mg
Mass Protein per Eluate Fraction, Flow [3]: 0.18 mg
Percent Eluted by Fraction, 1M NaCl [4]: 0%
Percent Eluted by Fraction, 2% Acetic Acid [4]: 100%
Percent Eluted by Fraction, 3M NaCl [4]: 0%
Percent Eluted by Fraction, Flow [4]: 0%
Mass Protein per Eluate Fraction, 2% Acetic Acid [4, 8]: 0.29 mg
Mass A1PI in Urea Eluate (mg), Activity [7]: 0.62 mg
Mass A1PI in Urea Eluate (mg), Nephelometry [7]: 0.71 mg
Specific Activity [7]: 0.87 mg/mg
Substance: RAFWYI
Percent Eluted by Fraction, 1M NaCl [5]: 36%
Percent Eluted by Fraction, 2% Acetic Acid [5]: 29%
Percent Eluted by Fraction, 3M NaCl [5]: 0%
Percent Eluted by Fraction, Flow [5]: 35%
Mass Protein per Eluate Fraction, 1M NaCl [5]: 0.12 mg
Mass Protein per Eluate Fraction, 2% Acetic Acid [5]: 0.10 mg
Mass Protein per Eluate Fraction, Flow [5]: 0.12 mg
Percent Eluted by Fraction, 1M NaCl [6]: 9%
Percent Eluted by Fraction, 2% Acetic Acid [6]: 0%
Percent Eluted by Fraction, 3M NaCl [6]: 0%
Percent Eluted by Fraction, Flow [6]: 91%
Mass Protein per Eluate Fraction, 1M NaCl [6]: 0.02 mg
Mass Protein per Eluate Fraction, Flow [6]: 0.24 mg
